Results on two substances are retold here after patent US20140045756A1.

Assay [1] has as its target TNFR2 immobilized on the SPR sensor chip (channel 1) (UniProt P20333). As to the kind of experiment: SPR (FastStep kinetic assay). Particulars: ligand.
Assay [2] has as its target TNFR1 immobilized on the SPR sensor chip (channel 3) (UniProt P19438). As to the kind of experiment: SPR (FastStep kinetic assay).
Assay [3] deals with TNFR2 immobilized on the SPR sensor chip (channel 1) (UniProt P20333). The experiment in a line: SPR (FastStep kinetic assay); right panel is TNFR2; key printed as TNFR1. Particulars: designed binder.

Chain of TNFR1 immobilized on the SPR sensor chip (channel 3) (P19438 30-211): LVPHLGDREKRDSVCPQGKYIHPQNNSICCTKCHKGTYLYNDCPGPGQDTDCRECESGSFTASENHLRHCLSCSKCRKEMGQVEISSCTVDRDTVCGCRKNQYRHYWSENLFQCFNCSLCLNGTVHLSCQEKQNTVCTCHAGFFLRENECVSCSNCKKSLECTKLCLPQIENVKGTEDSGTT
Chain of Recombinant human PGRN (rhPGRN) (P28799 18-593): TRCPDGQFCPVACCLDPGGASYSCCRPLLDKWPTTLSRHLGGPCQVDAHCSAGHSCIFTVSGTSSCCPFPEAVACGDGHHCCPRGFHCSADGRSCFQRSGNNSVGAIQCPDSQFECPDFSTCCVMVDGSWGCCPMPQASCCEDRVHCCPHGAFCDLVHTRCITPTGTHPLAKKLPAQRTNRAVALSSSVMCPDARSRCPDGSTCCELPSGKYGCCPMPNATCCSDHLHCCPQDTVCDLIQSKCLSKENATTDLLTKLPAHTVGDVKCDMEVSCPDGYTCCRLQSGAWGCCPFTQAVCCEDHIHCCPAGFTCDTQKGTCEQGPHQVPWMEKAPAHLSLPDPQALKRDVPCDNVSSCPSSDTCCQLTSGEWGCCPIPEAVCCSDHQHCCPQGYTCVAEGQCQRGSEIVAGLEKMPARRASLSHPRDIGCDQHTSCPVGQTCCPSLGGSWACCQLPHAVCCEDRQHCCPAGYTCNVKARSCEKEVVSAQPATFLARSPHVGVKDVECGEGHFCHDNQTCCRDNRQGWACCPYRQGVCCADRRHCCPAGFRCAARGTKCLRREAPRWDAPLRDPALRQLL

The term Kd denotes the free concentration of one partner at which half of the binding sites on the other are occupied at equilibrium, for simple one-to-one binding. Take “Recombinant human PGRN (rhPGRN) (from UniProt P28799 18-593)”: the Kd in assay [1] was determined as 1.52 nM; in assay [2] (ligand) it was 1.77 nM.

On to “Atsttrin-α1 (Antagonist of TNF/TNFR Signaling via Targeting to TNF Receptors-α1), recombinant”, for which the Kd in assay [2] (designed binder) came out at 142 nM; in assay [3] it was 90.2 nM.
